PMC3057995, “Potent Anti-Tumor Effect Generated by a Novel Human Papillomavirus (HPV) Antagonist Peptide Reactivating the pRb/E2F Pathway” (PLoS ONE, 2011)
Bridge positions count the residues as written; N and C are the ends. Ends that are not written are not given here.

Columns and labels:
[1] = target: T1, His-HPV16E7 fusion protein (human papillomavirus type 16, UniProt P03129 1-98); test: ELISA
T1 construct: source: E. coli BL21, extracted in denaturing conditions, purified (Ni-NTA agarose)
T1 sequence (looked up): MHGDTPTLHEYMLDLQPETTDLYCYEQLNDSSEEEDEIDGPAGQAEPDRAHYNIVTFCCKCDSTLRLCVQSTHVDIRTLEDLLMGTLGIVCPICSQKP

SiHa cells = system: SiHa cells
Procedure: The 5-FAM labeled peptides were used to monitor the cell uptake and intracellular location of the peptide. SiHa cells were seeded on the coverslips in 12-well plates (1×10^5/well) and cultured overnight. The DMEM was replaced with a fresh medium, supplemented with 80 µM 5-FAM labeled peptide. Cells were washed three times with a PBS buffer after 8 h and 24 h of incubation, respectively, and then observed under a fluorescence microscope Leica DMI 6000B. Images were captured with Leica AF6500 software (Leica Mikrosysteme Vertrieb GmbH, Wetzlar, Germany).

“positive phage clones displaying the peptide PKGLDWC” was tested. Which inhibitory ratio of HPV16E7 mAb binding at 10^13 CFU/ml [1] did it give?
Its inhibitory ratio of HPV16E7 mAb binding at 10^13 CFU/ml is > 50%.

For O=C(O)c1ccc2c(c1)C(=O)OC21c2ccc(O)cc2Oc2cc(O)ccc21 [5-Fam], which “cell fluorescence (uptake control)” value (SiHa cells) is on record?
Its value is “did not show fluorescence”.

B1: Pep-7 (peptide)
peptide: SACPKGLDWCGG
modifications: disulfide 3-10 (inferred)
notes: also called selected peptide; antagonist peptide; source: synthetic peptide (Chinese Peptide Company), HPLC purified
Does B1 bind ([1]; both partners purified)?
Result: binds
